Measured values from paper PMC2966416.

Legend:
[1] = biological target: NCenH3^CenpA-lacI (human)
[2] = biological target: NCenH3^Cse4-lacI (Saccharomyces cerevisiae)

silencing of the white-reporter (eye pigmentation) in S9.2 flies on tethering of the lacI fusion: share of lines with significant silencing [1]: 50 % of lines
silencing of the white-reporter (eye pigmentation) in S9.2 flies on tethering of the lacI fusion: share of lines with strong silencing [2]: 75 % of lines
Substance: BubR1 (natural protein)
